From paper PMC2783235

What was measured:
[1] = target: I67C (single-Cys mutant of FT-HT-Xa) (S. cerevisiae) (UniProt D6VTK4); assay: cross-linking
[2] = target: I67C (single-Cys mutant of FT-HT-Xa) (S. cerevisiae) (UniProt D6VTK4); assay: SDS-PAGE and western blot of membranes
[3] = target: I67C (single-Cys mutant of FT-HT-Xa) (S. cerevisiae) (UniProt D6VTK4); assay: cross-linking; remark: listed apart in the source
[4] = target: I67C (single-Cys mutant of FT-HT-Xa) (S. cerevisiae) (UniProt D6VTK4); assay: cross-linking; remark: listed apart in the source
[5] = target: L66C (single-Cys mutant of FT-HT-Xa) (S. cerevisiae) (UniProt D6VTK4); assay: cross-linking
[6] = target: L66C (single-Cys mutant of FT-HT-Xa) (S. cerevisiae) (UniProt D6VTK4); assay: SDS-PAGE and western blot of membranes
[7] = target: L66C (single-Cys mutant of FT-HT-Xa) (S. cerevisiae) (UniProt D6VTK4); assay: cross-linking; remark: listed apart in the source
[8] = target: L66C (single-Cys mutant of FT-HT-Xa) (S. cerevisiae) (UniProt D6VTK4); assay: cross-linking; remark: listed apart in the source
[9] = target: M69C (single-Cys mutant of FT-HT-Xa) (S. cerevisiae) (UniProt D6VTK4); assay: cross-linking
[10] = target: M69C (single-Cys mutant of FT-HT-Xa) (S. cerevisiae) (UniProt D6VTK4); assay: SDS-PAGE and western blot of membranes
[11] = target: M69C (single-Cys mutant of FT-HT-Xa) (S. cerevisiae) (UniProt D6VTK4); assay: cross-linking; remark: listed apart in the source
[12] = target: M69C (single-Cys mutant of FT-HT-Xa) (S. cerevisiae) (UniProt D6VTK4); assay: cross-linking; remark: listed apart in the source
[13] = target: T278C (single-Cys mutant of FT-HT-Xa) (S. cerevisiae) (UniProt D6VTK4); assay: cross-linking
[14] = target: T278C (single-Cys mutant of FT-HT-Xa) (S. cerevisiae) (UniProt D6VTK4); assay: SDS-PAGE and western blot of membranes
[15] = target: T278C (single-Cys mutant of FT-HT-Xa) (S. cerevisiae) (UniProt D6VTK4); assay: cross-linking; remark: listed apart in the source
[16] = target: T278C (single-Cys mutant of FT-HT-Xa) (S. cerevisiae) (UniProt D6VTK4); assay: cross-linking; remark: listed apart in the source
[17] = target: T279C (single-Cys mutant of FT-HT-Xa) (S. cerevisiae) (UniProt D6VTK4); assay: cross-linking
[18] = target: T279C (single-Cys mutant of FT-HT-Xa) (S. cerevisiae) (UniProt D6VTK4); assay: SDS-PAGE and western blot of membranes
[19] = target: T279C (single-Cys mutant of FT-HT-Xa) (S. cerevisiae) (UniProt D6VTK4); assay: cross-linking; remark: listed apart in the source
[20] = target: T279C (single-Cys mutant of FT-HT-Xa) (S. cerevisiae) (UniProt D6VTK4); assay: cross-linking; remark: listed apart in the source
[21] = target: L284C (single-Cys mutant of FT-HT-Xa) (S. cerevisiae) (UniProt D6VTK4); assay: radioligand binding
[22] = target: V68C (single-Cys mutant of FT-HT-Xa) (S. cerevisiae) (UniProt D6VTK4); assay: radioligand binding
[23] = target: A296C (single-Cys mutant of FT-HT-Xa) (S. cerevisiae) (UniProt D6VTK4); assay: radioligand binding
[24] = target: L283C (single-Cys mutant of FT-HT-Xa) (S. cerevisiae) (UniProt D6VTK4); assay: radioligand binding
[25] = target: I67C (single-Cys mutant of FT-HT-Xa) (S. cerevisiae) (UniProt D6VTK4); assay: radioligand binding
[26] = target: S288C (single-Cys mutant of FT-HT-Xa) (S. cerevisiae) (UniProt D6VTK4); assay: radioligand binding
[27] = target: W295C (single-Cys mutant of FT-HT-Xa) (S. cerevisiae) (UniProt D6VTK4); assay: radioligand binding
[28] = target: L291C (single-Cys mutant of FT-HT-Xa) (S. cerevisiae) (UniProt D6VTK4); assay: radioligand binding
[29] = target: L287C (single-Cys mutant of FT-HT-Xa) (S. cerevisiae) (UniProt D6VTK4); assay: radioligand binding
[30] = target: S293C (single-Cys mutant of FT-HT-Xa) (S. cerevisiae) (UniProt D6VTK4); assay: radioligand binding
[31] = target: V286C (single-Cys mutant of FT-HT-Xa) (S. cerevisiae) (UniProt D6VTK4); assay: radioligand binding
[32] = target: S292C (single-Cys mutant of FT-HT-Xa) (S. cerevisiae) (UniProt D6VTK4); assay: radioligand binding
[33] = target: T65C (single-Cys mutant of FT-HT-Xa) (S. cerevisiae) (UniProt D6VTK4); assay: radioligand binding
[34] = target: L66C (single-Cys mutant of FT-HT-Xa) (S. cerevisiae) (UniProt D6VTK4); assay: radioligand binding
[35] = target: L289C (single-Cys mutant of FT-HT-Xa) (S. cerevisiae) (UniProt D6VTK4); assay: radioligand binding
[36] = target: L64C (single-Cys mutant of FT-HT-Xa) (S. cerevisiae) (UniProt D6VTK4); assay: radioligand binding
[37] = target: V68C (single-Cys mutant of FT-HT-Xa) (S. cerevisiae) (UniProt D6VTK4); assay: cross-linking
[38] = target: V68C (single-Cys mutant of FT-HT-Xa) (S. cerevisiae) (UniProt D6VTK4); assay: SDS-PAGE and western blot of membranes
[39] = target: V68C (single-Cys mutant of FT-HT-Xa) (S. cerevisiae) (UniProt D6VTK4); assay: cross-linking; remark: listed apart in the source
[40] = target: V68C (single-Cys mutant of FT-HT-Xa) (S. cerevisiae) (UniProt D6VTK4); assay: cross-linking; remark: listed apart in the source

I67C (single-Cys mutant of FT-HT-Xa) (from UniProt D6VTK4 1-431) (receptor)
percent dimer [1]: 18% | percent dimer [2]: 19.3% | percent dimer [3]: 17% | percent dimer [4]: 17.4%

L66C (single-Cys mutant of FT-HT-Xa) (from UniProt D6VTK4 1-431) (receptor)
percent dimer [5]: 11.9% | percent dimer [6]: 12.3% | percent dimer [7]: 11.9% | percent dimer [8]: 13.2%

M69C (single-Cys mutant of FT-HT-Xa) (from UniProt D6VTK4 1-431) (receptor)
percent dimer [9]: 28.9% | percent dimer [10]: 17.7% | percent dimer [11]: 14.2% | percent dimer [12]: 17%

T278C (single-Cys mutant of FT-HT-Xa) (from UniProt D6VTK4 1-431) (receptor)
percent dimer [13]: 12.4% | percent dimer [14]: 15.1% | percent dimer [15]: 65.8% | percent dimer [16]: 12.5%

T279C (single-Cys mutant of FT-HT-Xa) (from UniProt D6VTK4 1-431) (receptor)
percent dimer [17]: 10.9% | percent dimer [18]: 17.3% | percent dimer [19]: 10.1% | percent dimer [20]: 15.8%

Tritiated α-factor ([3H]α-factor) (peptide)
Kd relative to FT-HT-Xa (relative to FT-HT-Xa) [21]: 1.1 | Kd relative to FT-HT-Xa (relative to FT-HT-Xa) [22]: 1.1 | Kd relative to FT-HT-Xa (relative to FT-HT-Xa) [23]: 0.4 | Kd relative to FT-HT-Xa (relative to FT-HT-Xa) [24]: 4.7 | Kd relative to FT-HT-Xa (relative to FT-HT-Xa) [25]: 2.2 | Kd relative to FT-HT-Xa (relative to FT-HT-Xa) [26]: 4.1 | Kd relative to FT-HT-Xa (relative to FT-HT-Xa) [27]: 1.3 | Kd relative to FT-HT-Xa (relative to FT-HT-Xa) [28]: 1.7 | Kd relative to FT-HT-Xa (relative to FT-HT-Xa) [29]: 1.1 | Kd relative to FT-HT-Xa (relative to FT-HT-Xa) [30]: 2.5 | Kd relative to FT-HT-Xa (relative to FT-HT-Xa) [31]: 1.9 | Kd relative to FT-HT-Xa (relative to FT-HT-Xa) [32]: 0.2 | Kd relative to FT-HT-Xa (relative to FT-HT-Xa) [33]: 1.5 | Kd relative to FT-HT-Xa (relative to FT-HT-Xa) [34]: 0.5 | Kd relative to FT-HT-Xa (relative to FT-HT-Xa) [35]: 2.1 | Kd relative to FT-HT-Xa (relative to FT-HT-Xa) [36]: 2.5

V68C (single-Cys mutant of FT-HT-Xa) (from UniProt D6VTK4 1-431) (receptor)
percent dimer [37]: 98.8% | percent dimer [38]: 28.5% | percent dimer [39]: 99.2% | percent dimer [40]: 98.3%
